T1: human OX40 on cells (human, UniProt P43489 29-277)
T1 sequence (looked up): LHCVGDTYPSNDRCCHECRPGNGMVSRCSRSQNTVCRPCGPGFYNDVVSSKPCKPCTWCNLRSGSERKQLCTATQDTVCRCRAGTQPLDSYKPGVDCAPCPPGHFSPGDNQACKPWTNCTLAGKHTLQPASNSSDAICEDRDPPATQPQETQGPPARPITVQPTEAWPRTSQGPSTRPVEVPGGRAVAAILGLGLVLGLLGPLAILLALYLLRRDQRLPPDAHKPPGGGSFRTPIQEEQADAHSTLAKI


Target: T1, human OX40 on cells
Assay: cell-based or functional assay

Binder	% donor responder (>2), SEB assay, IL-2 release [%]	Mean, normalized IL-2 release, SEB assay
2H6 IgG1 LALA (antibody) heavy: not shown light: DIQLTQSPSSLSASVGDRVTITCRASESVDNYGISFMNWFQQKPGKAPKLLIYAASNQKSGVPSRFSGSGSGTDFTLTISSLQPEDFATYFCQQSKEVPLTFGQGTKVEIKRTVAAPSVFIFPPSDEQLKSGTASVVCLLNNFYPREAKVQWKVDNALQSGNSQESVTEQDSKDSTYSLSSTLTLSKADYEKHKVYACEVTHQGLSSPVTKSFNRGEC	25	1.45
Tetra-14 (bispecific antibody, human IgG1, kappa, L234A L235A) heavy: not shown light: DIQLTQSPSSLSASVGDRVTITCRASESVDNYGISFMNWFQQKPGKAPKLLIYAASNQKSGVPSRFSGSGSGTDFTLTISSLQPEDFATYFCQQSKEVPLTFGQGTKVEIKRTVAAPSVFIFPPSDEQLKSGTASVVCLLNNFYPREAKVQWKVDNALQSGNSQESVTEQDSKDSTYSLSSTLTLSKADYEKHKVYACEVTHQGLSSPVTKSFNRGEC	40	1.65
Tetra-15 (antibody, human IgG1, kappa, L234A L235A) heavy: not shown light: DIQLTQSPSSLSASVGDRVTITCRASESVDNYGISFMNWFQQKPGKAPKLLIYAASNQKSGVPSRFSGSGSGTDFTLTISSLQPEDFATYFCQQSKEVPLTFGQGTKVEIKRTVAAPSVFIFPPSDEQLKSGTASVVCLLNNFYPREAKVQWKVDNALQSGNSQESVTEQDSKDSTYSLSSTLTLSKADYEKHKVYACEVTHQGLSSPVTKSFNRGEC	0	0.93
Tetra-18 (antibody, human IgG1, kappa, L234A L235A) heavy: not shown light: DIQLTQSPSSLSASVGDRVTITCRASESVDNYGISFMNWFQQKPGKAPKLLIYAASNQKSGVPSRFSGSGSGTDFTLTISSLQPEDFATYFCQQSKEVPLTFGQGTKVEIKRTVAAPSVFIFPPSDEQLKSGTASVVCLLNNFYPREAKVQWKVDNALQSGNSQESVTEQDSKDSTYSLSSTLTLSKADYEKHKVYACEVTHQGLSSPVTKSFNRGEC	0	0.88
Tetra-20 (bispecific antibody, human IgG1, kappa, L234A L235A) heavy 1: EVQLVESGGGLVQPGGSLRLSCAVSGYSITSDYAWNWIRQAPGKGLEWMGYISYSGSTAYNPSLKSRITISRDTSKNTFYLQMSSLRAEDTAVYYCARGPYNYLAYWGQGTLVTVSSASTKGPSVFPLAPSSKSTSGGTAALGCLVKDYFPEPVTVSWNSGALTSGVHTFPAVLQSSGLYSLSSVVTVPSSSLGTQTYICNVNHKPSNTKVDKKVEPKSCDKTHTCPPCPAPEAAGGPSVFLFPPKPKDTLMISRTPEVTCVVVDVSHEDPEVQFKWYVDGVEVHNAKTKPREEQYNSTFRVVSVLTVLHQDWLNGKEYKCKVSNKALPAPIEKTISKTKGQPREPAVYTLPPSREEMTKNQVKLVCLVTGFYPSDIAVEWESSGQPENNYYTTPPMLDSDGSFSLVSWLNVDKSRWQQGNIFSCSVMHEALHNRFTQKSLSLSPGGGGGTQVQLVQSGAEVKKPGASVKVSCKASGYTFTRYYMHWVRQAPGQCLEWMGWIYPGEGSTKYAQKFQGRVTMTRDTSISTAYMELSRLRSDDTAVYYCAREYGNYDYWGQGTLVTVSSGGGGSGGGGSGGGGSDIVMTQSPDSLAVSLGERATINCKSSQSLLNSGNQKNYLAWYQQKPGQPPKLLIYGASTRESGVPDRFSGSGSGTDFTLTISSLQAEDVAVYYCQNDHSYPYTFGCGTKLEIL heavy 2: EVQLVESGGGLVQPGGSLRLSCAVSGYSITSDYAWNWIRQAPGKGLEWMGYISYSGSTAYNPSLKSRITISRDTSKNTFYLQMNSLRAEDTAVYYCARGPYNYLAYWGQGTLVTVSSASTKGPSVFPLAPSSKSTSGGTAALGCLVKDYFPEPVTVSWNSGALTSGVHTFPAVLQSSGLYSLSSVVTVPSSSLGTQTYICNVNHKPSNTKVDKKVEPKSCDKTHTCPPCPAPEAAGGPSVFLFPPKPKDTLMISRTPEVTCVVVDVSHEDPEVKFNWYVDGVEVHNAKTKPREEQYNSTYRVVSVLTVLHQDWLNGKEYKCKVSNKALPAPIEKTISKAKGQPREPEVATFPPSRDELTKNQVTLVCLVTGFYPSDIAVEWESNGQPENNYKTDPPLLESDGSFALSSRLRVDKSRWQQGNVFSCSVMHEALHNHYTQKSLSLSPGGGGGTEVQLVESGGGLVQPGGSLRLSCAVSGYSITSDYAWNWIRQAPGKGLEWMGYISYSGSTAYNPSLKSRITISRDTSKNTFYLQMNSLRAEDTAVYYCARGPYNYLAYWGQGTLVTVSSASTKGPSVFPLAPSSKSTSGGTAALGCLVKDYFPEPVTVSWNSGALTSGVHTFPAVLQSSGLYSLSSVVTVPSSSLGTQTYICNVNHKPSNTKVDKKVEPKSC light: DIQLTQSPSSLSASVGDRVTITCRASESVDNYGISFMNWFQQKPGKAPKLLIYAASNQKSGVPSRFSGSGSGTDFTLTISSLQPEDFATYFCQQSKEVPLTFGQGTKVEIKRTVAAPSVFIFPPSDEQLKSGTASVVCLLNNFYPREAKVQWKVDNALQSGNSQESVTEQDSKDSTYSLSSTLTLSKADYEKHKVYACEVTHQGLSSPVTKSFNRGEC	0	1.14
Tetra-19 (bispecific antibody, human IgG1, kappa, L234A L235A) heavy 1: QVQLVQSGAEVKKPGASVKVSCKASGYTFTRYYMHWVRQAPGQGLEWMGWIYPGEGSTKYAQKFQGRVTMTRDTSISTAYMELSRLRSDDTAVYYCAREYGNYDYWGQGTLVTVSSASTKGPSVFPLAPSSKSTSGGTAALGCLVKDYFPEPVTVSWNSGALTSGVHTFPAVLQSSGLYSLSSVVTVPSSSLGTQTYICNVNHKPSNTKVDKKVEPKSCDKTHTCPPCPAPEAAGGPSVFLFPPKPKDTLMISRTPEVTCVVVDVSHEDPEVQFKWYVDGVEVHNAKTKPREEQYNSTFRVVSVLTVLHQDWLNGKEYKCKVSNKALPAPIEKTISKTKGQPREPAVYTLPPSREEMTKNQVKLVCLVTGFYPSDIAVEWESSGQPENNYYTTPPMLDSDGSFSLVSWLNVDKSRWQQGNIFSCSVMHEALHNRFTQKSLSLSPGGGGGTEVQLVESGGGLVQPGGSLRLSCAVSGYSITSDYAWNWIRQAPGKCLEWMGYISYSGSTAYNPSLKSRITISRDTSKNTFYLQMSSLRAEDTAVYYCARGPYNYLAYWGQGTLVTVSSGGGGSGGGGSGGGGSDIQLTQSPSSLSASVGDRVTITCRASESVDNYGISFMNWFQQKPGKAPKLLIYAASNQKSGVPSRFSGSGSGTDFTLTISSLQPEDFATYFCQQSKEVPLTFGCGTKVEIL heavy 2: QVQLVQSGAEVKKPGASVKVSCKASGYTFTRYYMHWVRQAPGQGLEWMGWIYPGEGSTKYAQKFQGRVTMTRDTSISTAYMELSRLRSDDTAVYYCAREYGNYDYWGQGTLVTVSSASTKGPSVFPLAPSSKSTSGGTAALGCLVKDYFPEPVTVSWNSGALTSGVHTFPAVLQSSGLYSLSSVVTVPSSSLGTQTYICNVNHKPSNTKVDKKVEPKSCDKTHTCPPCPAPEAAGGPSVFLFPPKPKDTLMISRTPEVTCVVVDVSHEDPEVKFNWYVDGVEVHNAKTKPREEQYNSTYRVVSVLTVLHQDWLNGKEYKCKVSNKALPAPIEKTISKAKGQPREPEVATFPPSRDELTKNQVTLVCLVTGFYPSDIAVEWESNGQPENNYKTDPPLLESQGSFALSSRLRVDKSRWQQGNVFSCSVMHEALHNHYTQKSLSLSPGGGGGTQVQLVQSGAEVKKPGASVKVSCKASGYTFTRYYMHWVRQAPGQGLEWMGWIYPGEGSTKYAQKFQGRVTMTRDTSISTAYMELSRLRSDDTAVYYCAREYGNYDYWGQGTLVTVSSASTKGPSVFPLAPSSKSTSGGTAALGCLVKDYFPEPVTVSWNSGALTSGVHTFPAVLQSSGLYSLSSVVTVPSSSLGTQTYICNVNHKPSNTKVDKKVEPKSC light: not shown	0	1
Tetra-21 (bispecific antibody, human IgG1, kappa, L234A L235A) heavy 1: QVQLVQSGAEVKKPGASVKVSCKASGYTFTRYYMHWVRQAPGQGLEWMGWIYPGEGSTKYAQKFQGRVTMTRDTSISTAYMELSRLRSDDTAVYYCAREYGNYDYWGQGTLVTVSSASTKGPSVFPLAPSSKSTSGGTAALGCLVKDYFPEPVTVSWNSGALTSGVHTFPAVLQSSGLYSLSSVVTVPSSSLGTQTYICNVNHKPSNTKVDKKVEPKSCDKTHTCPPCPAPEAAGGPSVFLFPPKPKDTLMISRTPEVTCVVVDVSHEDPEVQFKWYVDGVEVHNAKTKPREEQYNSTFRVVSVLTVLHQDWLNGKEYKCKVSNKALPAPIEKTISKTKGQPREPAVYTLPPSREEMTKNQVKLVCLVTGFYPSDIAVEWESSGQPENNYYTTPPMLDSDGSFSLVSWLNVDKSRWQQGNIFSCSVMHEALHNRFTQKSLSLSPGGGGGTEVQLVESGGGLVQPGGSLRLSCAVSGYSITSDYAWNWIRQAPGKCLEWMGYISYSGSTAYNPSLKSRITISRDTSKNTFYLQMSSLRAEDTAVYYCARGPYNYLAYWGQGTLVTVSSGGGGSGGGGSGGGGSDIQLTQSPSSLSASVGDRVTITCRASESVDNYGISFMNWFQQKPGKAPKLLIYAASNQKSGVPSRFSGSGSGTDFTLTISSLQPEDFATYFCQQSKEVPLTFGCGTKVEIL heavy 2: EVQLVESGGGLVQPGGSLRLSCAVSGYSITSDYAWNWIRQAPGKCLEWMGYISYSGSTAYNPSLKSRITISRDTSKNTFYLQMNSLRAEDTAVYYCARGPYNYLAYWGQGTLVTVSSGGGGSGGGGSGGGGSDIQLTQSPSSLSASVGDRVTITCRASESVDNYGISFMNWFQQKPGKAPKLLIYAASNQKSGVPSRFSGSGSGTDFTLTISSLQPEDFATYFCQQSKEVPLTFGCGTKVEIKRTGGGGTDKTHTCPPCPAPEAAGGPSVFLFPPKPKDTLMISRTPEVTCVVVDVSHEDPEVKFNWYVDGVEVHNAKTKPREEQYNSTYRVVSVLTVLHQDWLNGKEYKCKVSNKALPAPIEKTISKAKGQPREPEVATFPPSRDELTKNQVTLVCLVTGFYPSDIAVEWESNGQPENNYKTDPPLLESQGSFALSSRLRVDKSRWQQGNVFSCSVMHEALHNHYTQKSLSLSPGGGGGTQVQLVQSGAEVKKPGASVKVSCKASGYTFTRYYMHWVRQAPGQGLEWMGWIYPGEGSTKYAQKFQGRVTMTRDTSISTAYMELSRLRSDDTAVYYCAREYGNYDYWGQGTLVTVSSASTKGPSVFPLAPSSKSTSGGTAALGCLVKDYFPEPVTVSWNSGALTSGVHTFPAVLQSSGLYSLSSVVTVPSSSLGTQTYICNVNHKPSNTKVDKKVEPKSC light: not shown	8	1.32
7H11 IgG1 LALA (antibody, V domains shown) VH: QVQLVQSGAEVKKPGASVKVSCKASGYTFTRYYMHWVRQAPGQGLEWMGWIYPGDGSTKYAQKFQGRVTMTRDTSISTAYMELSRLRSDDTAVYYCAREYGNYDYWGQGTLVTVSS VL: DIVMTQSPDSLAVSLGERATINCKSSQSLLNSGNQKNYLAWYQQKPGQPPKLLIYGASTRESGVPDRFSGSGSGTDFTLTISSLQAEDVAVYYCQNDHSYPYTFGQGTKLEIKR	6	0.81

Source: patent US20200347143A1 (GLENMARK PHARMACEUTICALS S A, published 2020)
